Literature values, collected in PMC5326574.

Tests used:
[1] = biological target: Prolactin (second site) (Homo sapiens) (UniProt P01236)
Prolactin (Homo sapiens) = Prolactin (Homo sapiens) (UniProt P01236); experiment: SPR
ERK2 (Homo sapiens) = ERK2 (Homo sapiens) (UniProt P28482); experiment: NMR
Sequence of UniProt P28482 (P28482 2-360): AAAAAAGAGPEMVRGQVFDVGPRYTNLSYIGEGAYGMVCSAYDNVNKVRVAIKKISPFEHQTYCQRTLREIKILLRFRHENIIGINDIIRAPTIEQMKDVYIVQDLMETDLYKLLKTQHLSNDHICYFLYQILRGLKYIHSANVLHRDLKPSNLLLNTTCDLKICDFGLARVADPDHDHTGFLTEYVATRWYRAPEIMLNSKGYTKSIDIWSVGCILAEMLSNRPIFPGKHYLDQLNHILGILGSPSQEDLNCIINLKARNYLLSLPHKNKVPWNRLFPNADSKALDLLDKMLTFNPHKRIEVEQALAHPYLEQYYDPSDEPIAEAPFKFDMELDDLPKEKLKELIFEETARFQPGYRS

| Kd [1] [µM] | Kd (Prolactin (Homo sapiens)) [µM] | Kd (ERK2 (Homo sapiens)) [µM] | Substance |
| --- | --- | --- | --- |
| 33 | 0.006 | – | Prolactin receptor ECD (from UniProt P16471) |
| – | – | 30 | NHE1 C-terminal distal tail (NHE1cdt) (from UniProt P19634) |
